Key:
Assay in all cases: biochemical
Assay type in all cases: biochemical
266 human kinases [1] = target: T1, 266 human kinases (Homo sapiens, UniProt Q8N568); conditions: DCAMKL2(h); 100 μM
T1 sequence (Q8N568 1-766): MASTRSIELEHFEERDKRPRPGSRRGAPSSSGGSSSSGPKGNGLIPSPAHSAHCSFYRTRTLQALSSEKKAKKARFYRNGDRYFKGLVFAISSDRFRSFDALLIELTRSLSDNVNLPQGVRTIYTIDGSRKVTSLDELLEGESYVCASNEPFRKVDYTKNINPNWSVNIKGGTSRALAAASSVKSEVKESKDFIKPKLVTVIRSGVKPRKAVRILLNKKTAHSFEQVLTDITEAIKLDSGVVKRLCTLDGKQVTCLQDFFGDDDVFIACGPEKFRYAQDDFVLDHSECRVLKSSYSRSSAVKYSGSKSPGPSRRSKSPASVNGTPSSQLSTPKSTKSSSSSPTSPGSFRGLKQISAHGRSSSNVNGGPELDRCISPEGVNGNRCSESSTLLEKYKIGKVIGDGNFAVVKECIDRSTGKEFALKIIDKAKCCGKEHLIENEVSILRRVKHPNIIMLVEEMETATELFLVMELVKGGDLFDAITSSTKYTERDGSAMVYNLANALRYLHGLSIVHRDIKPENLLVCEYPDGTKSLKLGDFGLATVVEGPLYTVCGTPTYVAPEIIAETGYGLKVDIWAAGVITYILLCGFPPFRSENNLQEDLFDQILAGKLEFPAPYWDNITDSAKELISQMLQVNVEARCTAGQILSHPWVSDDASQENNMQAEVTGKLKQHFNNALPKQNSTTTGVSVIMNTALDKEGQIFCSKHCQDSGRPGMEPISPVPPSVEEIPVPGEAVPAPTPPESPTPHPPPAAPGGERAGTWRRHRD
In short: (§1)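 Kinase phosphorylates cationic substrate with radiolabelled ATP phosphate; substrate retained on anionic filter membrane; scintillation count; % of 100% activity control.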

266 human kinases [2] = target: 266 human kinases (Homo sapiens, UniProt Q9UM73); conditions: ALK(h); 100 μM
266 human kinases (Homo sapiens, UniProt Q9UM73), sequence (Q9UM73 19-1620): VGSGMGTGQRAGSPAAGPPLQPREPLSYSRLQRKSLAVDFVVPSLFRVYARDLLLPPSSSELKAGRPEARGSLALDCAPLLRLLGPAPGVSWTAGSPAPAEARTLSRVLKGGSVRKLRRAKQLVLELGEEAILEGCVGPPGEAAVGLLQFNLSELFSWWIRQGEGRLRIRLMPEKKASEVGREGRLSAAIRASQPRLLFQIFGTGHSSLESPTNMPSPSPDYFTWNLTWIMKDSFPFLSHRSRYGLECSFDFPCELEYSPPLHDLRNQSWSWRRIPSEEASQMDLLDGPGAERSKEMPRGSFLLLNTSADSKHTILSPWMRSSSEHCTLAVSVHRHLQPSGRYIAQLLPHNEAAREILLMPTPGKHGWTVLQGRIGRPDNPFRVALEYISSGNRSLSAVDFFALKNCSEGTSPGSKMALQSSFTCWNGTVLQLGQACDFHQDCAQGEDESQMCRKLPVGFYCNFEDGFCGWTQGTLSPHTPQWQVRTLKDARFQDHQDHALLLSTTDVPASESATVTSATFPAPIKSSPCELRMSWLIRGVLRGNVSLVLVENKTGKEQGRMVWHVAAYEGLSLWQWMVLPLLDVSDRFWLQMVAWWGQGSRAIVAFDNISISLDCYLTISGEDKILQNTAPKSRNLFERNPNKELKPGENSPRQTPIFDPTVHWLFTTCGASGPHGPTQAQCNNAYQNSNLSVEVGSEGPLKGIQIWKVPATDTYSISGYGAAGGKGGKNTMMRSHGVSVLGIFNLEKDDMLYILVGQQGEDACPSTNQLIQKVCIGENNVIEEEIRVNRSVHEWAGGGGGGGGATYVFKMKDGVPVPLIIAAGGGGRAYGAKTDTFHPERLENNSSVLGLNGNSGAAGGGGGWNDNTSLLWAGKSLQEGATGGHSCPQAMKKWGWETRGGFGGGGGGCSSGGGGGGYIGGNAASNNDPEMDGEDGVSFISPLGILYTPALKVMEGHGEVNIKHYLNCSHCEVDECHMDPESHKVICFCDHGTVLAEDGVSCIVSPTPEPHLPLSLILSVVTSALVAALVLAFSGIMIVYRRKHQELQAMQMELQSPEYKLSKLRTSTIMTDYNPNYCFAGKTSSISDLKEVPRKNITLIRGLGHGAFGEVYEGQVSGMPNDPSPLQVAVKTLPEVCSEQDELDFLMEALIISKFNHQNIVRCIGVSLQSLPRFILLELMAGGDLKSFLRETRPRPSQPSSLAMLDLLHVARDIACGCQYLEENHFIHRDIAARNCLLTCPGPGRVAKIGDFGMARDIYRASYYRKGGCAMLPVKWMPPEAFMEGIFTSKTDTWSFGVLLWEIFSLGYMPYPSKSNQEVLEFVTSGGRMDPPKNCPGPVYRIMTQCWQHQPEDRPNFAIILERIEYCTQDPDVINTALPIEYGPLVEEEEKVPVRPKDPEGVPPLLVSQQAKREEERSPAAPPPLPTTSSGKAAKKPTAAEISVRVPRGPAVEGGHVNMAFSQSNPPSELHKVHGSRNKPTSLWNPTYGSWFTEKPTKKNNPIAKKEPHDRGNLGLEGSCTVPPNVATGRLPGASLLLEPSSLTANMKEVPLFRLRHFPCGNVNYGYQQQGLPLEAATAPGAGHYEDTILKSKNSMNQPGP
In short: as §1

266 human kinases [3] = target: 266 human kinases (Homo sapiens, UniProt Q9UPE1); conditions: MSSK1(h); 100 μM
266 human kinases (Homo sapiens, UniProt Q9UPE1), sequence (Q9UPE1 whole entry): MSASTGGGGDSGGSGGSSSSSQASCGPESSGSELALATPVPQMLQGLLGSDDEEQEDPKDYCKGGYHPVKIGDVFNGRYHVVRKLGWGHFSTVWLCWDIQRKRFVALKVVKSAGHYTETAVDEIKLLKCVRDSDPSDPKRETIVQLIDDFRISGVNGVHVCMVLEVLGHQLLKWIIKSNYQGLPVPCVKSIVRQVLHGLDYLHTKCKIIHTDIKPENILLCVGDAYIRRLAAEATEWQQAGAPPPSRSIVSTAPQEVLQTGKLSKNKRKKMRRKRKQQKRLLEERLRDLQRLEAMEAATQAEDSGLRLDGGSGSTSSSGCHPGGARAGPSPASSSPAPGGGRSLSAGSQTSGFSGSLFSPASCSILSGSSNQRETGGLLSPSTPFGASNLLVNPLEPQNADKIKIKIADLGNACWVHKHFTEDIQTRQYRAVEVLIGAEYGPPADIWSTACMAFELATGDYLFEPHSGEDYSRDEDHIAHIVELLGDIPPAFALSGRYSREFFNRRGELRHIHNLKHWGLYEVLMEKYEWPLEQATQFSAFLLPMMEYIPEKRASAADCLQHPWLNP
In short: as §1

266 human kinases [4] = target: 266 human kinases (Homo sapiens, UniProt Q9P1W9); conditions: Pim-2(h); 100 μM
266 human kinases (Homo sapiens, UniProt Q9P1W9), sequence (Q9P1W9 whole entry): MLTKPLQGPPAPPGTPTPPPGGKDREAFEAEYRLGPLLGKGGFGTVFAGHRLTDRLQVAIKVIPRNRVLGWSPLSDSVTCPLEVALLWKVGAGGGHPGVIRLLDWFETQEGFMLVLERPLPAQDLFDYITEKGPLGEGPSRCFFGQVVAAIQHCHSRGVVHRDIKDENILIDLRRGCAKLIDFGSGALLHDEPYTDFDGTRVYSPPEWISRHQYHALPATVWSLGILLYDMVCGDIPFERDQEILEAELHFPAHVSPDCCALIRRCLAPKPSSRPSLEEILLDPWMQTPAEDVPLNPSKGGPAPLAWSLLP
In short: as §1

266 human kinases [5] = target: 266 human kinases (Homo sapiens, UniProt P08581, D1228H); conditions: Met(D1246H)(h); 100 μM
In short: as §1

266 human kinases [6] = target: 266 human kinases (Homo sapiens, UniProt Q14680); conditions: MELK(h); 100 μM
266 human kinases (Homo sapiens, UniProt Q14680), sequence (Q14680 whole entry): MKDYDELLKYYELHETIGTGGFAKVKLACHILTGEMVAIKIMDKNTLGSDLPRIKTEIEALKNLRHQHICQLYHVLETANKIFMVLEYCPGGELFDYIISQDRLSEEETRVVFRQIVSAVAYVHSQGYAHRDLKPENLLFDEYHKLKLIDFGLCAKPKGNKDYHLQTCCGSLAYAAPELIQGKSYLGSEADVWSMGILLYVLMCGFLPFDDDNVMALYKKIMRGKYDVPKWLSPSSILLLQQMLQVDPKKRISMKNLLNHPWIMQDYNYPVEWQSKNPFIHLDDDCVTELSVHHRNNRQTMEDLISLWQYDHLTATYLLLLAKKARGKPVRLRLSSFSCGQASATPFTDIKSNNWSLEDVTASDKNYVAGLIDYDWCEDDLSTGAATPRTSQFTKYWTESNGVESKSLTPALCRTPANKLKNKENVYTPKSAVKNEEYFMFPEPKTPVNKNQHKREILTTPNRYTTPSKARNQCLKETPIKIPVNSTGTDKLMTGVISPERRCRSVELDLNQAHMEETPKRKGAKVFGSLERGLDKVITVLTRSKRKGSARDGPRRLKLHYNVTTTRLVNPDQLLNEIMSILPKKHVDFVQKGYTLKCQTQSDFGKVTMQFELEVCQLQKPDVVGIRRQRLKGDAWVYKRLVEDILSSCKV
In short: as §1

266 human kinases [7] = target: 266 human kinases (Homo sapiens, UniProt Q13177); conditions: PAK2(h); 100 μM
266 human kinases (Homo sapiens, UniProt Q13177), sequence (Q13177 whole entry): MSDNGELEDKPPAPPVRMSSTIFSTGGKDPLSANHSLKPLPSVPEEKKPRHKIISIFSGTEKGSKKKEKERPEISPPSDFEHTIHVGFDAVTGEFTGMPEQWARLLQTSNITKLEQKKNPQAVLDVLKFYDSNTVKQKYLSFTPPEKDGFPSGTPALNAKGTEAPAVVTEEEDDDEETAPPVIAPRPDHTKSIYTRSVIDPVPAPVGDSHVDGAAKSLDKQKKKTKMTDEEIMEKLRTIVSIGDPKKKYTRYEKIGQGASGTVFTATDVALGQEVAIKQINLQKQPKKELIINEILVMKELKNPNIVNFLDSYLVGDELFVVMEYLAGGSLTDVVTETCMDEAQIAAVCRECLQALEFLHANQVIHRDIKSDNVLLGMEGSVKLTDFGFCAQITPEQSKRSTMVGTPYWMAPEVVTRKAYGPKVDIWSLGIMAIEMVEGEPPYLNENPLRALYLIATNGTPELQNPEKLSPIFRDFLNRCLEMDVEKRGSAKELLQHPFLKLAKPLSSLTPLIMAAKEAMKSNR
In short: as §1

266 human kinases [8] = target: 266 human kinases (Homo sapiens, UniProt P36888); conditions: Flt3(h); 100 μM
In short: as §1

266 human kinases [9] = target: 266 human kinases (Homo sapiens, UniProt P78362); conditions: SRPK2(h); 100 μM
266 human kinases (Homo sapiens, UniProt P78362), sequence (P78362 whole entry): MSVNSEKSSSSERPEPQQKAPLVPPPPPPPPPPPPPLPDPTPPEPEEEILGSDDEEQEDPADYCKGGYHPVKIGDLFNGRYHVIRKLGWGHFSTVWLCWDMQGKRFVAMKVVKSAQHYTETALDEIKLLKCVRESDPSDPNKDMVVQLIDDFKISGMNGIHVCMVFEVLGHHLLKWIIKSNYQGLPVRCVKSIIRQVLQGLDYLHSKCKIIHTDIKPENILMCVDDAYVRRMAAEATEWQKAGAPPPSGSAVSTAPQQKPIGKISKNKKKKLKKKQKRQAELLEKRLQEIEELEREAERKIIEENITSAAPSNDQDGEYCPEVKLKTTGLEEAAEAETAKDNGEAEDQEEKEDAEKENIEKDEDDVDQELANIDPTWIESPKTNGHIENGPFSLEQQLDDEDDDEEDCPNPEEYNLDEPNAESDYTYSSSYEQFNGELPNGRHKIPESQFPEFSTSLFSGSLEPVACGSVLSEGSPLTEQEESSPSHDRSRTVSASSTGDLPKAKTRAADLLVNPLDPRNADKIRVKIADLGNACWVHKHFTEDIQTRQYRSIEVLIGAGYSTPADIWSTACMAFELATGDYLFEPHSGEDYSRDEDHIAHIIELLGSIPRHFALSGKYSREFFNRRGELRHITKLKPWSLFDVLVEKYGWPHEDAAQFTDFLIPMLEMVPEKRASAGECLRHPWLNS
In short: as §1

266 human kinases [10] = target: T2, 266 human kinases (Homo sapiens, UniProt Q6PHR2); conditions: ULK3(h); 100 μM
T2 sequence (Q6PHR2 1-472): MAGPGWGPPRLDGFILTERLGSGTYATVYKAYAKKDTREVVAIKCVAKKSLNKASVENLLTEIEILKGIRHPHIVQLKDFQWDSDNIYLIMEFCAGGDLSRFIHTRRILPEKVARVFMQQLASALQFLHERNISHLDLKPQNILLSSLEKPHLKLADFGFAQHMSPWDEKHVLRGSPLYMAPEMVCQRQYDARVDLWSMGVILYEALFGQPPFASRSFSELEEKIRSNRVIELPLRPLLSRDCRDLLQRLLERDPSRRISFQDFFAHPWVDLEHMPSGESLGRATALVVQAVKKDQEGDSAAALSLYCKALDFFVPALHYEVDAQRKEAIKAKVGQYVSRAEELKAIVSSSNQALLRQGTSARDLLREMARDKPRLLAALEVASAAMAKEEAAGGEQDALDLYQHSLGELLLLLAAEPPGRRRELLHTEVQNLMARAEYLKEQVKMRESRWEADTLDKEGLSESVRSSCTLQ
In short: as §1

266 human kinases [11] = target: 266 human kinases (Homo sapiens, UniProt P07949); conditions: Ret(h); 100 μM
In short: as §1

266 human kinases [12] = target: 266 human kinases (Homo sapiens, UniProt P08581, Y1230D); conditions: Met(Y1248D)(h); 100 μM
In short: as §1

266 human kinases [13] = target: 266 human kinases (Homo sapiens, UniProt Q06187); conditions: BTK(h); 100 μM
266 human kinases (Homo sapiens, UniProt Q06187), sequence (Q06187 whole entry): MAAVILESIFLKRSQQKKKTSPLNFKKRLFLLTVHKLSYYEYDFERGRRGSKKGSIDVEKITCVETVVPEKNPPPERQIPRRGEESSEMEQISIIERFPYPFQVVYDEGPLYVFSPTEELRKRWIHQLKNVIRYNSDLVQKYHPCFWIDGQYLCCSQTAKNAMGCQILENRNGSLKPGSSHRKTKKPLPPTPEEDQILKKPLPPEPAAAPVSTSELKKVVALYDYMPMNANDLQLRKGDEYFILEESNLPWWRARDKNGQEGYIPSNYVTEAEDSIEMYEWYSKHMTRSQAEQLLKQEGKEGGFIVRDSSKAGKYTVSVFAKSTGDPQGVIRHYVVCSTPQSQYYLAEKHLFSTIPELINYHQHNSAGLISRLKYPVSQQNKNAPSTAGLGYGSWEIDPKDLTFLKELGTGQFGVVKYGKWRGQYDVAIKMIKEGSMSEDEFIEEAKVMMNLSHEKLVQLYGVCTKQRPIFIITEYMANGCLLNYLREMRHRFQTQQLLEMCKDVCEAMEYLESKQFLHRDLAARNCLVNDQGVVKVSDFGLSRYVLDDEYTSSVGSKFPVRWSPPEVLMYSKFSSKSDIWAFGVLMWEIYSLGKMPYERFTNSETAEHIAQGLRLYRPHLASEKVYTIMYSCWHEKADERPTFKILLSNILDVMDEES
In short: as §1

266 human kinases [14] = target: T3, 266 human kinases (Homo sapiens, UniProt P41743); conditions: PKCι(h); 100 μM
T3 sequence (P41743 1-596): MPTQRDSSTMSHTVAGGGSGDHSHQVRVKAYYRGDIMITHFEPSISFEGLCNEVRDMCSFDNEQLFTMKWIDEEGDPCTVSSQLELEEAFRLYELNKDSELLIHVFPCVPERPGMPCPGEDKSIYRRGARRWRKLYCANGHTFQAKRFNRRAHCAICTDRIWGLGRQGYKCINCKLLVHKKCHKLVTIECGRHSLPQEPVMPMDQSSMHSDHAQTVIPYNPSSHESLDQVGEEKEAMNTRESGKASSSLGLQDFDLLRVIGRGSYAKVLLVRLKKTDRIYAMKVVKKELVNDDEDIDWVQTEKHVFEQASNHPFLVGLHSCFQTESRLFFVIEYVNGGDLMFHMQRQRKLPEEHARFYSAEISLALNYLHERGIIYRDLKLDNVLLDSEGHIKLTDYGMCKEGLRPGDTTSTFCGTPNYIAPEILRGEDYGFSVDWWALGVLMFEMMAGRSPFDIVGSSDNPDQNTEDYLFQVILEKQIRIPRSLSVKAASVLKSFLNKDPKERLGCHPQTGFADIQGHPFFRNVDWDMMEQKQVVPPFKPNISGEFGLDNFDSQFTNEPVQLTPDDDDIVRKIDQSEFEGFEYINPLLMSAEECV
In short: as §1

Sequence	% activity (266 human kinases [1]) [%]	% activity (266 human kinases [2]) [%]	% activity (266 human kinases [3]) [%]	% activity (266 human kinases [4]) [%]	% activity (266 human kinases [5]) [%]	% activity (266 human kinases [6]) [%]	% activity (266 human kinases [7]) [%]	% activity (266 human kinases [8]) [%]	% activity (266 human kinases [9]) [%]	% activity (266 human kinases [10]) [%]	% activity (266 human kinases [11]) [%]	% activity (266 human kinases [12]) [%]	% activity (266 human kinases [13]) [%]	% activity (266 human kinases [14]) [%]
HRRIKAWLKKIKALARQLGVAA (mammal) [MMI-0500]	56	12	22	46	150	0	44	17	80	177	174	218	18	7
YARAAARQARAKALNRQLGVA (mammal) [MMI-0200]	131	95	100	74	139	59	69	99	100	164	96	118	100	97

Reference: patent publication US20140072613A1, “Compositions and Methods for Treating Cutaneous Scarring” (priority 2012, published 2014)
